Reference: patent publication US11484554B2, “Pancreatic cells for treating diabetes and methods of generating the same” (Seraxis, Inc., priority 2018, dated 2022)
“Also recorded” adds a separate entry of the source.

B1: KGF: keratinocyte growth factor used as differentiation factor in culture medium (protein, UniProt P21781 32-194, looked up)
Fibroblast growth factor 7: CNDMTPEQMATNVNCSSPERHTRSYDYMEGGDIRVRRLFCRTQWYLRIDKRGKVKGTQEMKNNYNIMEIRTVAVGIVAIKGVESEFYLAMNKEGKLYAKKECNEDCNFKELILENHYNTYASAKWTHNGGEMFVALNQKGIPVRGKKTKKEQKTAHFLPMAIT

What was measured:
Format in all cases: cell-based, human
[1] = tested on: SR1423 cells; assay: Glucagon added to the culture media during differentiation
Protocol: A second batch of SR1423 cells were seeded at 6.3×10^4 as described above and allowed to grow for 18-24 hours. […]

[2] = tested on: SR1423 cells; assay: Impact of KGF at earlier stages of differentiation, SR1423; settings: KGF at earlier stages of differentiation (early endoderm)
Protocol: Differentiation: A first batch of SR1423 cells were seeded at 2.3×10^4 cells/cm^2 and allowed to grow for 18-24 hours. Cells were then washed with dPBS (—Mg^2+/—Ca^2+) and medium was changed following a 28 day schedule comprised of 6 media formulation as follows: Days 1, 2, 3: DMEM/F-12 medium (Life Technologies #10565018), 0.2% HSA, 1XB27 supplement (Life Technologies #A1486701), 100 ng/ml Activin A and 1 uM Wortmannin; Days 4, 5, 6, 7: DMEM (Life Technologies #10567014), 0.2% HSA, 1XB27 supplement, 4 uM Retinoic Acid, 50 ng/ml KGF, 50 ng/ml Noggin, 0.25 uM Cyclopamine KAAD; Days 8, 10: DMEM, 0.2% HSA, 1XB27 supplement, 50 ng/ml KGF, 50 ng/ml Noggin, 50 ng/ml EGF; Days 12, 14: DMEM, 0.2% HSA, 1XB27 supplement, 50 ng/ml Noggin, 50 ng/ml EGF, 1 uM γ-secretase inhibitor XXI, 10 uM Alk5i II, 1 uM T3; Days 16, 18: DMEM, 0.2% HSA, 1XB27 supplement, 10 uM Alk5i II, 1 uM T3, 100 nM Retinoic Acid; Days 20, 22, 24, 26, 28: CMRL (Life Technologies #11530037), 0.2% HSA, 1× B27 supplement, 1× glutamax (Life Technologies # 35050061), 10 uM Alk5i II, 1 uM T3, 10 mM Nicotinamide, 50 ng/ml IGF-I, 10 ng/ml BMP4. For differentiations with the addition of a second stage employing KGF, medium on days 4, 5, 6 with DMEM, 0.2% BSA, 1XB27 supplement, and 50 ng/ml KGF was inserted into the schedule shifting the remaining stages three days later. […]

[3] = tested on: embryonic stem cell line BGO1V; assay: Impact of KGF at earlier stages of differentiation, BGO1V

| Molecule | amount of cells that co-express insulin and glucagon [1] | production of pancreatic and insulin-producing cells [2] | production of pancreatic and insulin-producing cells [3] |
| --- | --- | --- | --- |
| glucagon: peptide hormone added to the sixth differentiation medium | reducing the amount of cells that co-express insulin and glucagon; also recorded: reduces the amount of cells that co-express insulin and glucagon |  |  |
| B1 |  | marked reduction | matching results |
